According to patent US20110263454A1, “Methods of Identifying Functional Characteristics of Promoters, Transcription Modifying Proteins and Transcription Modulating Agents” (Salk Institute for Biological Studies, priority 2008, published 2011):

Tests used:
mPgc1b promoter = assay: NHR-promoter luciferase screen, mPgc1b promoter; format: cell-based, mouse; conditions: for Luc. act., normalized to lacZ / Normalized Luc. act., normalized to control: PGC1b promoter reporter, co-transfected HR, without or with its ligand; for Normalized Luc. act., normalized to control: relative to control; for luciferase activity normalized to lacZ activity and to a control, mPgc1b: mPgc1b promoter-luciferase, CV-1 cells, NHR +/- ligand, control = 1.00
Summary of the method: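 Luciferase reporter read-out after co-expression in CV-1 cells of V5H6-tagged receptor (alone or with RXR), the promoter construct and LacZ. Values are luciferase/LacZ relative to a control lacking NHR or ligand; orphan receptors tested ligand-free.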

mPOMC promoter = assay: NHR-promoter luciferase screen, mPOMC promoter; format: cell-based, mouse; conditions: for Results of assays of transcription factor (+/- ligand) with mPOMC: Table 6d, luciferase activity relative to control (control = 1.00); for Luc. act., normalized to lacZ / Normalized Luc. act., normalized to control: mPOMC promoter, HR component with or without ligand; for Normalized Luc. act., normalized to control: relative to control
Summary of the method: (§1)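 CV-1 cells were co-transfected with 50 ng NHR (homodimer or NHR/RXR heterodimer), 100 ng promoter-luciferase construct and 50 ng LacZ. Luciferase was normalized to LacZ and to a no-NHR/no-ligand control.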

mAdiponectin promoter = assay: NHR-promoter luciferase screen, mAdiponectin promoter; format: cell-based, mouse; conditions: for Luc. act., normalized to lacZ / Normalized Luc. act., normalized to control: Adiponectin, HR component without or with its ligand; for mAdiponectin promoter reporter activity: transcription factor +/- ligand, control = 1.00
Summary of the method: as §1

mDio1 promoter = assay: NHR-promoter luciferase screen, mDio1 promoter; format: cell-based, mouse; conditions: for Luc. act., normalized to lacZ / Normalized Luc. act., normalized to control: Dio1, HR component without or with its ligand; for mDio1 promoter reporter activity: transcription factor +/- ligand, control = 1.00
Summary of the method: as §1

hTNFa promoter = assay: NHR-promoter luciferase screen, hTNFa promoter; format: cell-based, human; conditions: for Luc. act., normalized to lacZ / Normalized Luc. act., normalized to control: TNFa promoter, HR component without or with ligand; for hTNFa promoter reporter activity: transcription factor +/- ligand, control = 1.00
Summary of the method: as §1

hIFNg promoter = assay: NHR-promoter luciferase screen, hIFNg promoter; format: cell-based, human; conditions: for Luc. act., normalized to lacZ / Normalized Luc. act., normalized to control: IFNg promoter, HR component without or with ligand; for hIFNg promoter reporter activity: transcription factor +/- ligand, control = 1.00
Summary of the method: as §1

Molecule	Luc. act., normalized to lacZ (mPgc1b promoter)	Normalized Luc. act., normalized to control (mPgc1b promoter)	luciferase activity normalized to lacZ activity and to a control, mPgc1b (mPgc1b promoter)	Results of assays of transcription factor (+/- ligand) with mPOMC (mPOMC promoter)	Luc. act., normalized to lacZ (mPOMC promoter)	Normalized Luc. act., normalized to control (mPOMC promoter)	Luc. act., normalized to lacZ (mAdiponectin promoter)	Normalized Luc. act., normalized to control (mAdiponectin promoter)	mAdiponectin promoter reporter activity (mAdiponectin promoter)	Luc. act., normalized to lacZ (mDio1 promoter)	Normalized Luc. act., normalized to control (mDio1 promoter)	mDio1 promoter reporter activity (mDio1 promoter)	Luc. act., normalized to lacZ (hTNFa promoter)	Normalized Luc. act., normalized to control (hTNFa promoter)	hTNFa promoter reporter activity (hTNFa promoter)	Luc. act., normalized to lacZ (hIFNg promoter)	Normalized Luc. act., normalized to control (hIFNg promoter)	hIFNg promoter reporter activity (hIFNg promoter)
TR2: Testicular Orphan Nuclear Receptor 2 (NR2C1), cDNA driver (protein, UniProt P13056 1-603, looked up) Nuclear receptor subfamily 2 …: MATIEEIAHQIIEQQMGEIVTEQQTGQKIQIVTALDHNTQGKQFILTNHDGSTPSKVILARQDSTPGKVFLTTPDAAGVNQLFFTTPDLSAQHLQLLTDNSPDQGPNKVFDLCVVCGDKASGRHYGAVTCEGCKGFFKRSIRKNLVYSCRGSKDCIINKHHRNRCQYCRLQRCIAFGMKQDSVQCERKPIEVSREKSSNCAASTEKIYIRKDLRSPLTATPTFVTDSESTRSTGLLDSGMFMNIHPSGVKTESAVLMTSDKAESCQGDLSTLANVVTSLANLGKTKDLSQNSNEMSMIESLSNDDTSLCEFQEMQTNGDVSRAFDTLAKALNPGESTACQSSVAGMEGSVHLITGDSSINYTEKEGPLLSDSHVAFRLTMPSPMPEYLNVHYIGESASRLLFLSMHWALSIPSFQALGQENSISLVKAYWNELFTLGLAQCWQVMNVATILATFVNCLHNSLQQDKMSTERRKLLMEHIFKLQEFCNSMVKLCIDGYEYAYLKAIVLFSPDHPSLENMEQIEKFQEKAYVEFQDYITKTYPDDTYRLSRLLLRLPALRLMNATITEELFFKGLIGNIRIDSVIPHILKMEPADYNSQIIGHSI	9.8	0.8	0.83	1.92	132.1	1.9	37.5	0.6	0.60	14.8	3.3	3.32	1038.2	1.1	1.06	13.6	0.9	0.85
HNF4g: Hepatocyte Nuclear Factor γ (NR2A2), cDNA driver (protein, UniProt Q14541 1-408, looked up) Hepatocyte nuclear factor …: MNTTDNGVNCLCAICGDRATGKHYGASSCDGCKGFFRRSIRKSHVYSCRFSRQCVVDKDKRNQCRYCRLRKCFRAGMKKEAVQNERDRISTRRSTFDGSNIPSINTLAQAEVRSRQISVSSPGSSTDINVKKIASIGDVCESMKQQLLVLVEWAKYIPAFCELPLDDQVALLRAHAGEHLLLGATKRSMMYKDILLLGNNYVIHRNSCEVEISRVANRVLDELVRPFQEIQIDDNEYACLKAIVFFDPDAKGLSDPVKIKNMRFQVQIGLEDYINDRQYDSRGRFGELLLLLPTLQSITWQMIEQIQFVKLFGMVKIDNLLQEMLLGGASNDGSHLHHPMHPHLSQDPLTGQTILLGPMSTLVHADQISTPETPLPSPPQGSGQEQYKIAANQASVISHQHLSKQKQL	6.8	0.6	0.57	1.07	73.9	1.1	45.4	0.7	0.72	15.6	3.5	3.49	859.3	0.9	0.87	13.3	0.8	0.83
RORb: RAR-related Orphan Receptor β (NR1F2), cDNA driver (protein, UniProt Q92753 1-470, looked up) Nuclear receptor ROR-beta: MCENQLKTKADATAQIEVIPCKICGDKSSGIHYGVITCEGCKGFFRRSQQNNASYSCPRQRNCLIDRTNRNRCQHCRLQKCLALGMSRDAVKFGRMSKKQRDSLYAEVQKHQQRLQEQRQQQSGEAEALARVYSSSISNGLSNLNNETSGTYANGHVIDLPKSEGYYNVDSGQPSPDQSGLDMTGIKQIKQEPIYDLTSVPNLFTYSSFNNGQLAPGITMTEIDRIAQNIIKSHLETCQYTMEELHQLAWQTHTYEEIKAYQSKSREALWQQCAIQITHAIQYVVEFAKRITGFMELCQNDQILLLKSGCLEVVLVRMCRAFNPLNNTVLFEGKYGGMQMFKALGSDDLVNEAFDFAKNLCSLQLTEEEIALFSSAVLISPDRAWLIEPRKVQKLQEKIYFALQHVIQKNHLDDETLAKLIAKIPTITAVCNLHGEKLQVFKQSHPEIVNTLFPPLYKELFNPDCATGCK	10.7	0.9	0.90	1.29	88.7	1.3	82.7	1.3	1.32	6.4	1.4	1.44	1029.5	1.0	1.05	22.2	1.4	1.40
RXRg: Retinoic X Receptor γ (NR2B3), cDNA driver (protein, UniProt P48443 1-463, looked up) Retinoic acid receptor …: MYGNYSHFMKFPAGYGGSPGHTGSTSMSPSAALSTGKPMDSHPSYTDTPVSAPRTLSAVGTPLNALGSPYRVITSAMGPPSGALAAPPGINLVAPPSSQLNVVNSVSSSEDIKPLPGLPGIGNMNYPSTSPGSLVKHICAICGDRSSGKHYGVYSCEGCKGFFKRTIRKDLIYTCRDNKDCLIDKRQRNRCQYCRYQKCLVMGMKREAVQEERQRSRERAESEAECATSGHEDMPVERILEAELAVEPKTESYGDMNMENSTNDPVTNICHAADKQLFTLVEWAKRIPHFSDLTLEDQVILLRAGWNELLIASFSHRSVSVQDGILLATGLHVHRSSAHSAGVGSIFDRVLTELVSKMKDMQMDKSELGCLRAIVLFNPDAKGLSNPSEVETLREKVYATLEAYTKQKYPEQPGRFAKLLLRLPALRSIGLKCLEHLFFFKLIGDTPIDTFLMEMLETPLQIT	9.0	0.8	0.76	1.06	73.2	1.1	69.4	1.1	1.10	6.6	1.5	1.48	1025.0	1.0	1.04	15.2	1.0	0.96
TR4: Testicular Orphan Nuclear Receptor 4 (NR2C2), cDNA driver (protein, UniProt P49116 1-596, looked up) Nuclear receptor subfamily 2 …: MTSPSPRIQIISTDSAVASPQRIQIVTDQQTGQKIQIVTAVDASGSPKQQFILTSPDGAGTGKVILASPETSSAKQLIFTTSDNLVPGRIQIVTDSASVERLLGKTDVQRPQVVEYCVVCGDKASGRHYGAVSCEGCKGFFKRSVRKNLTYSCRSNQDCIINKHHRNRCQFCRLKKCLEMGMKMESVQSERKPFDVQREKPSNCAASTEKIYIRKDLRSPLIATPTFVADKDGARQTGLLDPGMLVNIQQPLIREDGTVLLATDSKAETSQGALGTLANVVTSLANLSESLNNGDTSEIQPEDQSASEITRAFDTLAKALNTTDSSSSPSLADGIDTSGGGSIHVISRDQSTPIIEVEGPLLSDTHVTFKLTMPSPMPEYLNVHYICESASRLLFLSMHWARSIPAFQALGQDCNTSLVRACWNELFTLGLAQCAQVMSLSTILAAIVNHLQNSIQEDKLSGDRIKQVMEHIWKLQEFCNSMAKLDIDGYEYAYLKAIVLFSPDHPGLTSTSQIEKFQEKAQMELQDYVQKTYSEDTYRLARILVRLPALRLMSSNITEELFFTGLIGNVSIDSIIPYILKMETAEYNGQITGASL	17.3	1.5	1.46	3.75	258.7	3.8	296.1	4.7	4.71	56.0	12.6	12.55	1189.6	1.2	1.21	42.5	2.7	2.67
